This test deals with 53BP1 fragment (a.a. 1221-1718) fused to an adenylate cyclase fragment (two-hybrid) (UniProt Q12888). Put plainly: cell-based or functional assay.
For “i53 + Q31H two-hybrid fusion (designed binder)”, the Experiment 1 Average Enrichment is 0.19 log2, the Experiment 1 Rep 1 Enrichment came out at 0.66 log2, the Experiment 1 Rep 2 Enrichment was -0.29 log2 and the Experiment 2 Average Enrichment worked out at 0.11 log2. Moreover, the Experiment 2 Rep 1 Enrichment came out at 0.13 log2 and the Experiment 2 Rep 2 Enrichment stood at 0.09 log2.

For “i53 + Q31L two-hybrid fusion (designed binder)”, the Experiment 1 Average Enrichment stood at 0.41 log2, the Experiment 1 Rep 1 Enrichment came out at 0.71 log2, the Experiment 1 Rep 2 Enrichment was 0.11 log2 and the Experiment 2 Average Enrichment is -0.15 log2. The substance further displayed an Experiment 2 Rep 1 Enrichment of -0.23 log2 and an Experiment 2 Rep 2 Enrichment of -0.06 log2.

“i53 + Q31M two-hybrid fusion (designed binder)” yielded an Experiment 1 Average Enrichment of -1.74 log2, an Experiment 1 Rep 1 Enrichment of -0.84 log2, an Experiment 1 Rep 2 Enrichment of -2.63 log2 and an Experiment 2 Average Enrichment of 0.07 log2. This substance came in with an Experiment 2 Rep 1 Enrichment of -0.05 log2 and an Experiment 2 Rep 2 Enrichment of 0.18 log2.

Substance “i53 + Q31R two-hybrid fusion (designed binder)” had an Experiment 1 Average Enrichment of 0.15 log2, an Experiment 1 Rep 1 Enrichment of 0.66 log2, an Experiment 1 Rep 2 Enrichment of -0.37 log2 and an Experiment 2 Average Enrichment of -0.22 log2. Besides, the Experiment 2 Rep 1 Enrichment stood at 0.14 log2 and the Experiment 2 Rep 2 Enrichment is -0.58 log2.

Consider “i53 + Q31Y two-hybrid fusion (designed binder)”, for which the Experiment 1 Average Enrichment came out at 0.32 log2, the Experiment 1 Rep 1 Enrichment amounted to 0.31 log2, the Experiment 1 Rep 2 Enrichment worked out at 0.34 log2 and the Experiment 2 Average Enrichment is -0.05 log2. This substance also showed an Experiment 2 Rep 1 Enrichment of -0.26 log2 and an Experiment 2 Rep 2 Enrichment of 0.16 log2.

As for “i53 + Q40D two-hybrid fusion (designed binder)”, the Experiment 1 Average Enrichment was -0.31 log2, the Experiment 1 Rep 1 Enrichment came to 0.13 log2, the Experiment 1 Rep 2 Enrichment is -0.75 log2 and the Experiment 2 Average Enrichment turned out to be 0.8 log2. The substance also yielded an Experiment 2 Rep 1 Enrichment of 1.27 log2 and an Experiment 2 Rep 2 Enrichment of 0.33 log2.

“i53 + Q40E two-hybrid fusion (designed binder)” showed an Experiment 1 Average Enrichment of 1.37 log2, an Experiment 1 Rep 1 Enrichment of 1.67 log2, an Experiment 1 Rep 2 Enrichment of 1.08 log2 and an Experiment 2 Average Enrichment of 1.18 log2. This substance had an Experiment 2 Rep 1 Enrichment of 1.84 log2 and an Experiment 2 Rep 2 Enrichment of 0.52 log2.

The substance “i53 + Q41C two-hybrid fusion (designed binder)” registered an Experiment 1 Average Enrichment of 0.18 log2, an Experiment 1 Rep 1 Enrichment of 0.22 log2, an Experiment 1 Rep 2 Enrichment of 0.13 log2 and an Experiment 2 Average Enrichment of -0.03 log2. The substance further showed an Experiment 2 Rep 1 Enrichment of -0.05 log2 and an Experiment 2 Rep 2 Enrichment of 0 log2.

As for “i53 + Q41I two-hybrid fusion (designed binder)”, the Experiment 1 Average Enrichment amounted to 0.3 log2, the Experiment 1 Rep 1 Enrichment came out at 0.3 log2, the Experiment 1 Rep 2 Enrichment was found to be 0.3 log2 and the Experiment 2 Average Enrichment was -0.08 log2. In addition, the Experiment 2 Rep 1 Enrichment was determined as 0.08 log2 and the Experiment 2 Rep 2 Enrichment is -0.25 log2.

Substance “i53 + Q41V two-hybrid fusion (designed binder)” gave an Experiment 1 Average Enrichment of -0.14 log2, an Experiment 1 Rep 1 Enrichment of -0.37 log2, an Experiment 1 Rep 2 Enrichment of 0.1 log2 and an Experiment 2 Average Enrichment of 0.05 log2. In addition, the Experiment 2 Rep 1 Enrichment came to 0.13 log2 and the Experiment 2 Rep 2 Enrichment is -0.03 log2.

The substance “i53 + Q41Y two-hybrid fusion (designed binder)” showed an Experiment 1 Average Enrichment of 0.68 log2, an Experiment 1 Rep 1 Enrichment of 0.73 log2, an Experiment 1 Rep 2 Enrichment of 0.64 log2 and an Experiment 2 Average Enrichment of 0.47 log2. The Experiment 2 Rep 1 Enrichment came out at 0.4 log2 and the Experiment 2 Rep 2 Enrichment amounted to 0.53 log2.

As for “i53 + R42C two-hybrid fusion (designed binder)”, the Experiment 1 Average Enrichment is 0.42 log2, the Experiment 1 Rep 1 Enrichment worked out at 0.37 log2, the Experiment 1 Rep 2 Enrichment came out at 0.47 log2 and the Experiment 2 Average Enrichment came out at 0.28 log2. The Experiment 2 Rep 1 Enrichment is 0.54 log2 and the Experiment 2 Rep 2 Enrichment worked out at 0.01 log2.

Substance “i53 + R42F two-hybrid fusion (designed binder)” had an Experiment 1 Average Enrichment of 1.88 log2, an Experiment 1 Rep 1 Enrichment of 1.99 log2, an Experiment 1 Rep 2 Enrichment of 1.77 log2 and an Experiment 2 Average Enrichment of 1.26 log2. Also, the Experiment 2 Rep 1 Enrichment came to 1.4 log2 and the Experiment 2 Rep 2 Enrichment amounted to 1.13 log2.

In turn, “i53 + R42H two-hybrid fusion (designed binder)” had an Experiment 1 Average Enrichment of 2.04 log2, an Experiment 1 Rep 1 Enrichment of 2.18 log2, an Experiment 1 Rep 2 Enrichment of 1.89 log2 and an Experiment 2 Average Enrichment of 1.03 log2. For the same substance, the Experiment 2 Rep 1 Enrichment amounted to 0.89 log2 and the Experiment 2 Rep 2 Enrichment came out at 1.16 log2.

In turn, “i53 + R42N two-hybrid fusion (designed binder)” gave an Experiment 1 Average Enrichment of 1.12 log2, an Experiment 1 Rep 1 Enrichment of 1.18 log2, an Experiment 1 Rep 2 Enrichment of 1.05 log2 and an Experiment 2 Average Enrichment of 1.01 log2. For the same substance, the Experiment 2 Rep 1 Enrichment is 1.34 log2 and the Experiment 2 Rep 2 Enrichment was 0.68 log2.

The substance “i53 + R42S two-hybrid fusion (designed binder)” returned an Experiment 1 Average Enrichment of -0.08 log2, an Experiment 1 Rep 1 Enrichment of -0.13 log2, an Experiment 1 Rep 2 Enrichment of -0.02 log2 and an Experiment 2 Average Enrichment of 0.23 log2. The substance further showed an Experiment 2 Rep 1 Enrichment of 0.05 log2 and an Experiment 2 Rep 2 Enrichment of 0.41 log2.

For the substance “i53 + R42Y two-hybrid fusion (designed binder)”, the Experiment 1 Average Enrichment was determined as 1.57 log2, the Experiment 1 Rep 1 Enrichment turned out to be 1.44 log2, the Experiment 1 Rep 2 Enrichment was found to be 1.69 log2 and the Experiment 2 Average Enrichment came to 1.19 log2. Also, the Experiment 2 Rep 1 Enrichment was found to be 1.13 log2 and the Experiment 2 Rep 2 Enrichment amounted to 1.26 log2.

For “i53 + R54C two-hybrid fusion (designed binder)”, the Experiment 1 Average Enrichment came to 0.06 log2, the Experiment 1 Rep 1 Enrichment was found to be 0.24 log2, the Experiment 1 Rep 2 Enrichment was -0.12 log2 and the Experiment 2 Average Enrichment was -0.07 log2. The substance also showed an Experiment 2 Rep 1 Enrichment of -0.43 log2 and an Experiment 2 Rep 2 Enrichment of 0.29 log2.

For “i53 + R54F two-hybrid fusion (designed binder)”, the Experiment 1 Average Enrichment is 0.76 log2, the Experiment 1 Rep 1 Enrichment amounted to 1.01 log2, the Experiment 1 Rep 2 Enrichment is 0.52 log2 and the Experiment 2 Average Enrichment came out at 0.55 log2. The substance further gave an Experiment 2 Rep 1 Enrichment of 0.66 log2 and an Experiment 2 Rep 2 Enrichment of 0.43 log2.

In turn, “i53 + R54H two-hybrid fusion (designed binder)” had an Experiment 1 Average Enrichment of 0.87 log2, an Experiment 1 Rep 1 Enrichment of 0.78 log2, an Experiment 1 Rep 2 Enrichment of 0.96 log2 and an Experiment 2 Average Enrichment of 0.49 log2. The same substance displayed an Experiment 2 Rep 1 Enrichment of 0.43 log2 and an Experiment 2 Rep 2 Enrichment of 0.55 log2.

On to “i53 + R54K two-hybrid fusion (designed binder)”, for which the Experiment 1 Average Enrichment came to 0.3 log2, the Experiment 1 Rep 1 Enrichment is 0.07 log2, the Experiment 1 Rep 2 Enrichment came to 0.54 log2 and the Experiment 2 Average Enrichment is -0.22 log2. Besides, the Experiment 2 Rep 1 Enrichment is -0.16 log2 and the Experiment 2 Rep 2 Enrichment was -0.29 log2.

“i53 + R54M two-hybrid fusion (designed binder)” returned an Experiment 1 Average Enrichment of 0.85 log2, an Experiment 1 Rep 1 Enrichment of 0.82 log2, an Experiment 1 Rep 2 Enrichment of 0.89 log2 and an Experiment 2 Average Enrichment of 0.56 log2. This substance also had an Experiment 2 Rep 1 Enrichment of 0.56 log2 and an Experiment 2 Rep 2 Enrichment of 0.55 log2.

The substance “i53 + R54N two-hybrid fusion (designed binder)” had an Experiment 1 Average Enrichment of 0.19 log2, an Experiment 1 Rep 1 Enrichment of -0.26 log2, an Experiment 1 Rep 2 Enrichment of 0.65 log2 and an Experiment 2 Average Enrichment of 0.01 log2. The same substance gave an Experiment 2 Rep 1 Enrichment of 0.03 log2 and an Experiment 2 Rep 2 Enrichment of -0.01 log2.

For “i53 + R54Q two-hybrid fusion (designed binder)”, the Experiment 1 Average Enrichment stood at 0.14 log2, the Experiment 1 Rep 1 Enrichment is -0.05 log2, the Experiment 1 Rep 2 Enrichment came out at 0.32 log2 and the Experiment 2 Average Enrichment is -0.02 log2. In addition, the Experiment 2 Rep 1 Enrichment was -0.04 log2 and the Experiment 2 Rep 2 Enrichment is 0 log2.

In turn, “i53 + R54T two-hybrid fusion (designed binder)” registered an Experiment 1 Average Enrichment of 0.66 log2, an Experiment 1 Rep 1 Enrichment of 0.62 log2, an Experiment 1 Rep 2 Enrichment of 0.71 log2 and an Experiment 2 Average Enrichment of 0.7 log2. The substance also displayed an Experiment 2 Rep 1 Enrichment of 0.76 log2 and an Experiment 2 Rep 2 Enrichment of 0.64 log2.

The substance “i53 + R74C two-hybrid fusion (designed binder)” had an Experiment 1 Average Enrichment of 0.81 log2, an Experiment 1 Rep 1 Enrichment of 0.64 log2, an Experiment 1 Rep 2 Enrichment of 0.99 log2 and an Experiment 2 Average Enrichment of 0.65 log2. Besides, the Experiment 2 Rep 1 Enrichment is 0.68 log2 and the Experiment 2 Rep 2 Enrichment is 0.63 log2.

Substance “i53 + R74E two-hybrid fusion (designed binder)” came in with an Experiment 1 Average Enrichment of 0.38 log2, an Experiment 1 Rep 1 Enrichment of 0.53 log2, an Experiment 1 Rep 2 Enrichment of 0.23 log2 and an Experiment 2 Average Enrichment of -0.1 log2. Besides, the Experiment 2 Rep 1 Enrichment came to 0.14 log2 and the Experiment 2 Rep 2 Enrichment is -0.35 log2.

Turning to “i53 + R74I two-hybrid fusion (designed binder)”, the Experiment 1 Average Enrichment is 0.83 log2, the Experiment 1 Rep 1 Enrichment turned out to be 0.84 log2, the Experiment 1 Rep 2 Enrichment was determined as 0.83 log2 and the Experiment 2 Average Enrichment was 0.61 log2. The Experiment 2 Rep 1 Enrichment stood at 0.63 log2 and the Experiment 2 Rep 2 Enrichment is 0.58 log2.

For the origin of these results see patent publication US20230135471A1, “UBIQUITIN VARIANTS WITH IMPROVED AFFINITY FOR 53BP1” (Integrated DNA Technologies, Inc., priority 2021, published 2023).
